Legend:
[1] = molecular target: VE-cadherin-VC (VE-cadherin ectodomain and transmembrane domain fused to the C-terminal Venus fragment) (human) (UniProt P33151); assay: split reporter (BiFC, NanoBiT); Venus BiFC (VN155 I152L with VC155 A206K) in live HEK293T cells, 0.5 ug of each construct, confocal microscopy 24 h after transfection; mean BiFC intensity per cell or BiFC/DeepRed ratio, compared with control pairings
bFos BiFC construct = molecular target: T1, bFos BiFC construct (UniProt P01100 118-210); assay: split reporter (BiFC, NanoBiT); validation of the quantitative BiFC analysis with bJun/bFos (positive) and bJun/bΔFos (negative); BiFC/DeepRed ratio and mean BiFC intensity; details in S1-S4 Figs; details: partners not purified
T1 construct: transcription factor Fos, the construct called bFos
T1 sequence (P01100 118-210): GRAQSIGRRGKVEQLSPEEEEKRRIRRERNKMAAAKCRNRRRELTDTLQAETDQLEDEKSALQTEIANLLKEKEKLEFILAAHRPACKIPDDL

Sequence of VE-cadherin-VC (VE-cadherin ectodomain and transmembrane domain fused to the C-terminal Venus fragment) (human) (P33151 26-625): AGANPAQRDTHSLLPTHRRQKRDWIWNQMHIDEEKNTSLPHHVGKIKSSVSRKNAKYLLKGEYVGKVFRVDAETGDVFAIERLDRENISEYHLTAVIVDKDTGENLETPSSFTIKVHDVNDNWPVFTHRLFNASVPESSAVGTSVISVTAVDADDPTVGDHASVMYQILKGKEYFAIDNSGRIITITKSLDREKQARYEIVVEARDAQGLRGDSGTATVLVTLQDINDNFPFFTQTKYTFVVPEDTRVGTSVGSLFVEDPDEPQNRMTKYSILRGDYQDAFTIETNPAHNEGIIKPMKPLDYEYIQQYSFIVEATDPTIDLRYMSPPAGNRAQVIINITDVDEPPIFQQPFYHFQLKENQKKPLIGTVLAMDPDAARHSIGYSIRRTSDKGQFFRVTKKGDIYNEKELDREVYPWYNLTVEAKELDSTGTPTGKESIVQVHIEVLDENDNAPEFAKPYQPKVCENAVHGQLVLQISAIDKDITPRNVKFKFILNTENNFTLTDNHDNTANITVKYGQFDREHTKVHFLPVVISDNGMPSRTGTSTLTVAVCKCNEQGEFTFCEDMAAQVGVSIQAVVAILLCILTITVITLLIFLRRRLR
Sequence of VE-PTP-VN (vascular endothelial protein tyrosine phosphatase, ectodomain and transmembrane domain, fused to the N-terminal Venus fragment) (domain or fragment) (P23467 1-1647): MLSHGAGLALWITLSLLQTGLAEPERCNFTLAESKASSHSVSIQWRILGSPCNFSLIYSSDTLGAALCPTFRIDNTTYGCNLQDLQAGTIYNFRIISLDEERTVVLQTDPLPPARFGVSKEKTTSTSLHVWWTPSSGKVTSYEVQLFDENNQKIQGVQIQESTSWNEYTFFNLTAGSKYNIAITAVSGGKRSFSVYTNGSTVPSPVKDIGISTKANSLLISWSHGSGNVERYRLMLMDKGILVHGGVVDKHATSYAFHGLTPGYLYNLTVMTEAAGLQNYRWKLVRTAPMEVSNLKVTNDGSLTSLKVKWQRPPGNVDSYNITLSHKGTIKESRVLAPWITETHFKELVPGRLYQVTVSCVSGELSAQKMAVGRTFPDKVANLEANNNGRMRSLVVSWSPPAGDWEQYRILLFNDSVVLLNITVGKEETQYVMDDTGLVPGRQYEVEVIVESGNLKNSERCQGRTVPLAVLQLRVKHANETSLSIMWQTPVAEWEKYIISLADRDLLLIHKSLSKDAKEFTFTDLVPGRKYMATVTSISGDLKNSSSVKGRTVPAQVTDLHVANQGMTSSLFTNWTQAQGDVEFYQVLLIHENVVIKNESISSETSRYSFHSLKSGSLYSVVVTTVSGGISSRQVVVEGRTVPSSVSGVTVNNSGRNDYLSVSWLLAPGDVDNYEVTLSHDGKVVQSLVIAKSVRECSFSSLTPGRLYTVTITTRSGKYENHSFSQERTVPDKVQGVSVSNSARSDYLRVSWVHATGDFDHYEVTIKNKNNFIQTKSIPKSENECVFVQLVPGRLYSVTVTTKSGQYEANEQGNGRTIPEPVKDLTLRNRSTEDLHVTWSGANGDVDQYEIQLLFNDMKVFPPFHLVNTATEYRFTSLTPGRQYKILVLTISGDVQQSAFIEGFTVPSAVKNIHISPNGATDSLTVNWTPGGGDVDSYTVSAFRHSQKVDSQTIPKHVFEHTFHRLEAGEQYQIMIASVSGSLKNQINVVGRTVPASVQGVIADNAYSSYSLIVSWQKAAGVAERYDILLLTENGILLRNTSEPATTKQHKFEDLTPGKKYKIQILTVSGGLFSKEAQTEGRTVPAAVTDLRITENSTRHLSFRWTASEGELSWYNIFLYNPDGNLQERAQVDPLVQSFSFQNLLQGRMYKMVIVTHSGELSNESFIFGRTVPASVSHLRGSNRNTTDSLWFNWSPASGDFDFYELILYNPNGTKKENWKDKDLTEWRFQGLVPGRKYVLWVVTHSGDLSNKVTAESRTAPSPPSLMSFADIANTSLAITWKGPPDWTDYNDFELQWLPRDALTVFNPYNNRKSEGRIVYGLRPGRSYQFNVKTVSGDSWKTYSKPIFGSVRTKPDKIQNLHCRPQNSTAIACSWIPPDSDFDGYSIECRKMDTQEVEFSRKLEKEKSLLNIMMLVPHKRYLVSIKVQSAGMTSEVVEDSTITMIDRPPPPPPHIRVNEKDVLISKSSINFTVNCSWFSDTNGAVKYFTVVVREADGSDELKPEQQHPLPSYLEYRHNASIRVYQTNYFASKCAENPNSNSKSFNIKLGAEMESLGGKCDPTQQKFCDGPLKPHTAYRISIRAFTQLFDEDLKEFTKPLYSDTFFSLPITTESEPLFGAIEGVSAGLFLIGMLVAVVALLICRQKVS

| S/N (median BiFC/DeepRed ratio over that of the negative pairing) [1] | fold mean BiFC value over controls [1] | S/N (median BiFC/DeepRed ratio of the positive pairing over that of the negative pairing bJun/bΔFos) (bFos BiFC construct) | fold difference in mean BiFC fluorescence intensity over bJun/bΔFos (bFos BiFC construct) | Molecule |
| --- | --- | --- | --- | --- |
| 6.5 | 2 to 3 fold |  |  | VE-PTP-VN (vascular endothelial protein tyrosine phosphatase, ectodomain and transmembrane domain, fused to the N-terminal Venus fragment) (domain or fragment) |
|  |  | 7.7 | 6 fold | bJun BiFC construct (domain or fragment, UniProt P05412 257-318, looked up, transcription factor Jun, the construct called bJun) RKRMRNRIAASKCRKRKLERIARLEEKVKTLKAQNSELASTANMLREQVAQLKQKVMNHVNS |
